2 proteins from publication PMC6114778, “Divalent cation and chloride ion sites of chicken acid sensing ion channel 1a elucidated by x-ray crystallography” (PLoS ONE, 2018) can be followed below.

Data set [1] concerns the molecule itself. The data set can be described thus: crystal structure; Δ25 crystals grown at high pH (Tris pH 8.5) with BaCl2, soaked in 50 mM BaCl2 or 150 mM NaBr; space group P212121; resting state; anomalous diffraction.
Data set [2] deals with the molecule itself. The data set can be described thus: crystal structure; Δ13 crystals grown at 20°C, HEPES pH 6.9, sodium formate, PEG 3,350, soaked in 50 mM BaCl2; space group H3; desensitized state; anomalous diffraction.

B1: chicken ASIC1a Δ25 crystallization construct (residues 25-463 of chicken ASIC1) (domain or fragment, UniProt Q1XA76 25-463, looked up)
chain: SSTLHGISHIFSYERLSLKRVVWALCFMGSLALLALVCTNRIQYYFLYPHVTKLDEVAATRLTFPAVTFCNLNEFRFSRVTKNDLYHAGELLALLNNRYEIPDTQTADEKQLEILQDKANFRNFKPKPFNMLEFYDRAGHDIREMLLSCFFRGEQCSPEDFKVVFTRYGKCYTFNAGQDGKPRLITMKGGTGNGLEIMLDIQQDEYLPVWGETDETSFEAGIKVQIHSQDEPPLIDQLGFGVAPGFQTFVSCQEQRLIYLPPPWGDCKATTGDSEFYDTYSITACRIDCETRYLVENCNCRMVHMPGDAPYCTPEQYKECADPALDFLVEKDNEYCVCEMPCNVTRYGKELSMVKIPSKASAKYLAKKYNKSEQYIGENILVLDIFFEALNYETIEQKKAYEVAGLLGDIGGQMGLFIGASILTVLELFDYAYEVIKHR
notes: chicken ASIC1 (acid sensing ion channel 1a), residues 25-463; 24 residues removed from the amino-terminus and 64 from the carboxy-terminus; Homotrimeric channel; three subunits around a molecular 3-fold axis in the P212121 crystals; also called resting channel; cASIC1a
On to B1, for which the binding result in data set [1] is recorded as “binds”.

B2: chicken ASIC1a Δ13 crystallization construct (residues 14-463 of chicken ASIC1) (domain or fragment, UniProt Q1XA76 14-463, looked up)
chain: GQPVSIQAFASSSTLHGISHIFSYERLSLKRVVWALCFMGSLALLALVCTNRIQYYFLYPHVTKLDEVAATRLTFPAVTFCNLNEFRFSRVTKNDLYHAGELLALLNNRYEIPDTQTADEKQLEILQDKANFRNFKPKPFNMLEFYDRAGHDIREMLLSCFFRGEQCSPEDFKVVFTRYGKCYTFNAGQDGKPRLITMKGGTGNGLEIMLDIQQDEYLPVWGETDETSFEAGIKVQIHSQDEPPLIDQLGFGVAPGFQTFVSCQEQRLIYLPPPWGDCKATTGDSEFYDTYSITACRIDCETRYLVENCNCRMVHMPGDAPYCTPEQYKECADPALDFLVEKDNEYCVCEMPCNVTRYGKELSMVKIPSKASAKYLAKKYNKSEQYIGENILVLDIFFEALNYETIEQKKAYEVAGLLGDIGGQMGLFIGASILTVLELFDYAYEVIKHR
notes: chicken ASIC1 (acid sensing ion channel 1a), residues 14-463; 13 residues removed from the amino-terminus and 64 from the carboxy-terminus; Homotrimeric channel; crystals in space group H3; also called desensitized channel; cASIC1a
B2: in data set [2], the binding result is listed as “binds”.
